Columns and labels:
hMAT2A = molecular target: T1, hMAT2A (Homo sapiens, UniProt P31153, I322V); test: HILIC HPLC of AdoMet analogue formation; type: biochemical; conditions: ATP 1.5 mM, substrate 1.5 mM, MgCl2 3 mM, pH 7.4, 30 °C
T1 construct: gene MAT2A; pNIC28-Bsa4-hMAT2A, His-tagged, E. coli Rosetta 2, Ni-NTA; rows are the I322V mutant

[1] = substrate: C/C1=C\[C@@H](C)C(=O)C[C@@H]([C@H](C)C[C@@H]2CC[C@@H](O)[C@H](O)C2)OC(=O)[C@@H]2CCCCN2C(=O)C(=O)[C@]2(O)O[C@@H](CC[C@H]2C)C[C@H](O)/C(C)=C/C=C/C=C/[C@@H](C)C[C@@H](C)C(=O)[C@H](O)[C@@H]1O; test: RP-HPLC methyltransferase assay; type: biochemical, Streptomyces hygroscopicus; conditions: AdoMet 500 µM; BC231 2.5–250 µM

T1 sequence (P31153 whole entry I322V): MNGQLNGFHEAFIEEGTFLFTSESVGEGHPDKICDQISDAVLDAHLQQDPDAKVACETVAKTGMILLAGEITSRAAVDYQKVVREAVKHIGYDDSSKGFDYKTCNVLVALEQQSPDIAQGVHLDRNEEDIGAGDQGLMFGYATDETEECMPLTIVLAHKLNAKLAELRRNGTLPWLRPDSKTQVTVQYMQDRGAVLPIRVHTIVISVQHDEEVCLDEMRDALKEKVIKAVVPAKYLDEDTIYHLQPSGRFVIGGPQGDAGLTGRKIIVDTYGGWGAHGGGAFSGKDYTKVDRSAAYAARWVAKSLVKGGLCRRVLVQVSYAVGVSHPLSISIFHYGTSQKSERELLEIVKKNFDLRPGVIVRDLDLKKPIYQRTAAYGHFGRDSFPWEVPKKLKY

For `C=CCSCC[C@H](N)C(=O)O` [S-allyl-L-homocysteine], the “HILIC HPLC of AdoMet analogue formation” value (hMAT2A) was “evaluated with L-ethionine and S-allyl-L-homocysteine (Sahc) as substrates”.

B1: RapM (Streptomyces hygroscopicus) (protein)
chain: MIQPDVVTAFTAVRDINLDEPGTPQAETKAATFKSASSSIYDLAASMSAKGQLWNWGVHDSEFVAEIEARLPGFTEYGTDGFSEQLYYLALRDLPKGLESCDGRTVLEVGCGMGEGLNFLSRLVPTARMTGLDLAPKAIASATATLSRGDTLRFVQGDAEELPFEDSSVDVLVNIESSHTYPNLGRFLREAARALRRGGALSHIDVFTRQRLEAMRRITTEIPELKWVSDHDISDQVRAAVRRRMPPDSHLRSTLNKQRMNRLARTLALHSQITVFGGTFADYQPPASVKMLSRLGLVPPMDSLPMETYRHQIAVRV
notes: wild-type rapM in pET28a(+) (NdeI/XhoI), N-terminal His6 tag, E. coli BL21 (DE3), Ni-NTA
For B1, the Km [1] was 48.9 ± 7.1 µM and the kcat [1] was 1.47 ± 0.072 min^–1.
